Test results taken from the domain aggregation screens of Martell et al. (2025).

Assay: soluble fraction after stress (log2 fold change); higher = more stays soluble; pooled small domains, quantitative proteomics
Conditions: stress: pH 4
Procedure, shortened: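 Pooled custom libraries of small protein domains were stressed at pH 4 and then measured by high-throughput quantitative proteomics. The fold change in the amount of each domain that stays soluble after the acid stress serves as a measure of aggregation propensity. Fold changes are given on a log2 scale, and higher values mean more of the domain stayed soluble.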

Row | Sequence | soluble fraction (log2)
1 | HMDEFAGSAKPLADGAAPAGYDVKGNKDSMKYHEPGGRWYDATVAEVWFKTAADAEAAGFVKAGA | -0.266
2 | HMGMSMNEFLNNRLEQLAVEAVDKSSLGEEIFFYAEPATINLFKDAVDEDEYKVVFPVLKSIIEVEQKLSR | -1.69
3 | HMFSSVSVPAELSNQRFDKVVAELTPDLSRSKIKQLILLGKVLLNGEVTPPKQKVETGDEIEIFYTRQIE | -0.23
4 | HMAKIATTVYEQIRTAILNGELSNSERLVEEDLAVSMGISRTPVREALRRLAAEGLVDVSPNRGARVAE | -0.778
5 | HMGTPEQVVVSSVLKETNEIVLKWPADGFMAKYKMDNLNLNFEPVHGQGVMGYFIGSRLIKLELV | -0.33
6 | HMVGEYTVKKGDTLWKIAGQTLGSPLRYAEIYELNKDVIEEAALGRGKKNSSNGHWIFQGTVLKIPA | -0.255
7 | HMVAGPDEPLSDREQGVLDLLAEGLSNKAISKQLGISVATVKSHLSNIYGKLQAENRMQAVARARELGLM | -0.386
8 | HMNGLDSVLRNWARQTLASGGENLLGDLTDHVTRLIISEALIMTGGNRTRAAELLGLSRPTLLAKMDKLNL | -0.789
9 | HMPSKTFYNLSQEKQQKIIDASEKEFSNNLYQDVSLNQIIKNSNISRGSFYMYFTDKEDLYFYLLNEY | ≥ 0.43
10 | HMNAEGLIGREAVALTAVDAHGGRVRLGGEEWSARLSKENGGVSRLSVGDPVRVTDIDGAIAVVAP | 0.0456
11 | HMGQDLSYYIKIVQNQQPVDPLTGEPKVLDYGEVIRQAQILQMLDTGDLDRDKAIGQLSMKDAL | -0.26
12 | HMSSGTAYATDAVNVRSGPGTSYTVLGYLSRGEKVTITGTVSNGWTQIQLPGNRLGYVSSAYLSASYPS | -0.115
13 | HMKVTRWEDTGMKPAEAQEWQHYDFKPQEAMNWRDAGFVPLVARTWSDKGFDASEAQAWRDSVRNS | 0.123
14 | HMLTIEEYLTQLKKLMKDRDAATVRDALSDAEEHLRNAMAGEDPSRLDGIIEEYGSPEEIAAAYKIMEEHT | -0.715
15 | HMVVSDSAEIDKIVQDVIAANPKAIEDFKSGKTNVTGWLMGQVMKLSHGKANPKQATEILNKYLSK | 0.18
16 | HMSVLPAREQVAAILRQAILLRKFKEGQDLTLKDAAELVGSSITPVREAFQILENEGLIELRPNKGAVVL | -0.616
17 | HMDMPLIGTAIRGWGIISPAQQETLIKMSILTVEDLAAINDEGIKRIGMGGLDLKNKAKAWLLQLK | -0.00985
18 | HMSGSLLQTRQRLQALTDLGHYKGDLAAAWGPEAIEALKRAQAALGITVDGKWGPETEDAIQVALQAQT | -0.133
19 | HMKMPNGYGSITKLSGKRRKPWRVRKTAGWELDAKTQKLKQTYINIGYYETRADAMSALVSYNEDP | -0.151

Row | Sequence | soluble fraction (log2)
20 | HMHSGFHSAILDVDRAVKEGKTLYEALNKYPYIFDETFRSLVRAGEASGELPSILSKLALYLEEQSK | -1.04
21 | HMEYDEVVVVKQIIPKGKNTMVAHLKHLKEHGETGFLKQAVGYLKLHASEIPFSVDAVISEVH | -0.0529
22 | HMNINLNVGKRLKSIRQNKELSLDEVSNLTNVSKPALAQIERGASSPTINTLWKISKGLKVPLSYFLQE | ≥ 0.43
23 | HMVDITPDLIRTLLERFGEYGVTKEHIEARIQRHIESILPAQVVQLRKTYNSLKDGMSQPSDWFDI | -1.43
24 | HMDRESFIKLGRELARSAFAHVGQKSTEKALETAADVLRLKDPNEVLARLGSAELTGRQVVQAIYPELI | 0.0233
25 | HMAVSSHAVKQRIRSLIQAEDPAAPLSDEALRLALSALGVDVSRRVIAKYRAELNIPSSSQRKK | 0.213
26 | HMIEKGSDALEKELRKNNLSINEFLTNKNIDIILDELKLKDIDDLYVNIALGKYTPNQIIKIVNK | -0.61
27 | HMPARTANEEAIRKYLLNHDSITRKETQALLKTGQSAAGRILKEMVENGWLARIGNGRSTGYELR | 0.244
28 | HMGESFPYVAYATDSVRLRARPSSSATILTVIRKGDAVLITGADGSYKIVEYEGRKGYVVSAFLSSQET | -0.00452
29 | HMVAADTVQVPDVTGKTVADAKQALISAGLQVGTVTAKDGKETANTILETSPAAGTSVDKGSKVNLVYSTG | -0.0646
30 | HMTAVPADVETVTGFTALDRAGLDTLLARLGLAMDLEDLSFLQAYFRDTERRDPTLTEIRVVDTYWSDH | -1.44
31 | HMSLMHEESLKNIRRFINSLPESLRTAFTLREQDGLSYEEIGVITETPIGTVRSRIFRAREAILEHIKKEL | -0.445
32 | HMDNVINDGMQVRFTGNVDINGTPLKIYDRIYTAEGISDDTVVLMLGNDVYARVYLSDVVPAD | -0.275
33 | HMKELASKYEISEYMKFLIENLDKSNFFYPIEKRESMINNIFSIYSKADLSKKELNMLWGMLKKLR | -1.06
34 | HMNINVRNTGIKAVENNIINLSSDQRTFTWASNDRKLITVPFDENPYSALAAWFKTDEGIEVYQTIEKKL | -0.294
35 | HMQRFIHITVSDVHQATRLLEEEMQLTNYSVAENNAIKIFEFTYEPQEINHLFGKNGIEVSSLFIGS | -0.345
36 | HMTDNSTTTIRNLKIEWLLEEIRNAVRTGVSVDAAVERISNNPFVKPPEDLLNEARIIFLQNAGQI | -0.848
37 | HMRFKPLAEILAAVQTRYAGRVLDVELDRDQAGRNVYEVKLLAADGSRREIHIDAVTGKEVSL | 0.178
38 | HMESYTEEMLEKMSVSKLRTIARELQVDNMTREQIRFGKKTELIQNILEFTGREIENMQLYDK | -0.357
